Here are results for four proteins from publication PMC4824898, “Characterisation of Schizosaccharomyces pombe α-actinin” (PeerJ, 2016).

Like-named read-outs stand apart in the source and are kept apart here.

Series [1] concerns the molecule itself. Kind of series: SEC; gel filtration on Superdex 200 10/300GL in 50 mM Tris-HCl, pH 7.6, 200 mM KCl (also Sephacryl S-400HR in 25 mM sodium phosphate, pH 7.6, 150 mM NaCl); elution compared with reference proteins; dimer formation judged from apparent size. On the technique in general: Size exclusion chromatography separates by hydrodynamic size, large species first.

Series [2] deals with the molecule itself. Described as above. This is another data set of the same source.

B1: ROD-EF of S. pombe α-actinin (domain or fragment, Schizosaccharomyces pombe, UniProt O13728 228-621, looked up)
chain: AFSTLDKVETAARRVERFTEVLMSTHDMKIDYESRMKRLLGSIARMQEYWHTVQFENNYTDVKSHSNNFAKFKATEKREWVKEKIDLESLLGTIQTNLKTYQLRKYEPPAGLKIVDLERQWKDFLSEEANQSKLINTHMREIKESMRIAFADRANSFSKMLSTISNEITNLQGDWRDQLDHVEFLQEHLGPLEVELASVKVLYDNCFQAGIEENDYTMFSYEDLEHEFGITANIIANKIKYLENELLEREKRTLSKQELDGITKVFRHFEKKKSNMLNEVEFYAALASLGLVYDTEEGTALFHRAANSEEGVTYERFTEIVMEELEDRDSARQVLYAFCDVADGKSYVTSDDLLRSQVRPNIVKFLECNMNKHSEGLDYLTWIKQLLAEDKEIV
notes: 396 residues in all; also called pTEV-SP-ROD-EF; source: E. coli BL21(DE3), purified (nickel chelating column, TEV cleavage, ion exchange when necessary); not shown: 10xHis, N-terminal, cleaved
For B1, the binding result in series [1] is on record as “binds”.

B2: full-length S. pombe α-actinin (natural protein, Schizosaccharomyces pombe, UniProt O13728 1-621, looked up)
chain: MQANQWQSVQNRTFTKWFNTKLSSRDLPSVFDLRKDLSDGILLIQLLEIIGDENLGRYNRNPRMRVHRLENVNKALEYIKSKGMPLTNIGPADIVDGNLKLILGLIWTLILRFTIADINEEGLTAKEGLLLWCQRKTANYHPEVDVQDFTRSWTNGLAFCALIHQHRPDLLDYNKLDKKNHRANMQLAFDIAQKSIGIPRLIEVEDVCDVDRPDERSIMTYVAEYFHAFSTLDKVETAARRVERFTEVLMSTHDMKIDYESRMKRLLGSIARMQEYWHTVQFENNYTDVKSHSNNFAKFKATEKREWVKEKIDLESLLGTIQTNLKTYQLRKYEPPAGLKIVDLERQWKDFLSEEANQSKLINTHMREIKESMRIAFADRANSFSKMLSTISNEITNLQGDWRDQLDHVEFLQEHLGPLEVELASVKVLYDNCFQAGIEENDYTMFSYEDLEHEFGITANIIANKIKYLENELLEREKRTLSKQELDGITKVFRHFEKKKSNMLNEVEFYAALASLGLVYDTEEGTALFHRAANSEEGVTYERFTEIVMEELEDRDSARQVLYAFCDVADGKSYVTSDDLLRSQVRPNIVKFLECNMNKHSEGLDYLTWIKQLLAEDKEIV
notes: also called full length α-actinin; pTEV-SP; source: E. coli BL21(DE3), purified (nickel chelating column, TEV cleavage, ion exchange when necessary); not shown: 10xHis, N-terminal, cleaved
In the case of B2, the binding result in series [2] was “binds”.

B3: rod domain (ROD) of S. pombe α-actinin (domain or fragment, Schizosaccharomyces pombe, UniProt O13728 228-483, looked up)
chain: AFSTLDKVETAARRVERFTEVLMSTHDMKIDYESRMKRLLGSIARMQEYWHTVQFENNYTDVKSHSNNFAKFKATEKREWVKEKIDLESLLGTIQTNLKTYQLRKYEPPAGLKIVDLERQWKDFLSEEANQSKLINTHMREIKESMRIAFADRANSFSKMLSTISNEITNLQGDWRDQLDHVEFLQEHLGPLEVELASVKVLYDNCFQAGIEENDYTMFSYEDLEHEFGITANIIANKIKYLENELLEREKRTLSK
notes: alpha-actinin of Schizosaccharomyces pombe, rod domain with two putative spectrin repeats, nucleotides 682-1449, residues 228-483; 258 residues in all; also called pTEV-SP-ROD; source: E. coli BL21(DE3), purified (nickel chelating column, TEV cleavage, ion exchange when necessary); not shown: 10xHis, N-terminal, cleaved
As for B3, the binding result in series [1] was “binds”.

B4: ABD-ROD of S. pombe α-actinin (domain or fragment, Schizosaccharomyces pombe, UniProt O13728 1-483, looked up)
chain: MQANQWQSVQNRTFTKWFNTKLSSRDLPSVFDLRKDLSDGILLIQLLEIIGDENLGRYNRNPRMRVHRLENVNKALEYIKSKGMPLTNIGPADIVDGNLKLILGLIWTLILRFTIADINEEGLTAKEGLLLWCQRKTANYHPEVDVQDFTRSWTNGLAFCALIHQHRPDLLDYNKLDKKNHRANMQLAFDIAQKSIGIPRLIEVEDVCDVDRPDERSIMTYVAEYFHAFSTLDKVETAARRVERFTEVLMSTHDMKIDYESRMKRLLGSIARMQEYWHTVQFENNYTDVKSHSNNFAKFKATEKREWVKEKIDLESLLGTIQTNLKTYQLRKYEPPAGLKIVDLERQWKDFLSEEANQSKLINTHMREIKESMRIAFADRANSFSKMLSTISNEITNLQGDWRDQLDHVEFLQEHLGPLEVELASVKVLYDNCFQAGIEENDYTMFSYEDLEHEFGITANIIANKIKYLENELLEREKRTLSK
notes: 485 residues in all; also called pTEV-SP-ABD-ROD; source: E. coli BL21(DE3), purified (nickel chelating column, TEV cleavage, ion exchange when necessary); not shown: 10xHis, N-terminal, cleaved
With B4, the binding result in series [1] is on record as “binds”.
